Test results published in patent US20260049138A1.

The binders below were run against CD3ε homodimer protein (human) (UniProt P07766) (assay: SPR).
Sequence of CD3ε homodimer protein (human) (P07766 23-126 limits assumed): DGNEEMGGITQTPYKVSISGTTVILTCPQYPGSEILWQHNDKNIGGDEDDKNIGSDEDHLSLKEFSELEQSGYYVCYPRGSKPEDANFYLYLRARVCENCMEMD

Row | Binder | KD ratio to GLS3000
1 | GLS3000 H27dT (antibody, name in Kabat numbering, V domains shown) VH: QVQLVESGGGVVQPGRSLRLSCAASGFTFSNAWMHWVRQAPGKGLEWVAQIKAKSNNYATYYAESVKGRFTISRDDSKNSLYLQMNSLKTEDTAVYYCRYVHYGAYYGVDAWGQGTTVTVSS VL: DIVMTQSPLSLPVTPGEPASISCRSSQSLVTSNRNTYLHWYQQKPGQAPRLLIYKVSNRFSGVPDRFSGSGSGTDFTLKISRVEAEDVGVYYCGQGTQVPYTFGQGTKLEIK | 13000
2 | GLS3000 G89R (antibody, name in Kabat numbering, V domains shown) VH: QVQLVESGGGVVQPGRSLRLSCAASGFTFSNAWMHWVRQAPGKGLEWVAQIKAKSNNYATYYAESVKGRFTISRDDSKNSLYLQMNSLKTEDTAVYYCRYVHYGAYYGVDAWGQGTTVTVSS VL: DIVMTQSPLSLPVTPGEPASISCRSSQSLVHSNRNTYLHWYQQKPGQAPRLLIYKVSNRFSGVPDRFSGSGSGTDFTLKISRVEAEDVGVYYCRQGTQVPYTFGQGTKLEIK | 4130
3 | GLS3000 H27dV (antibody, name in Kabat numbering, V domains shown) VH: QVQLVESGGGVVQPGRSLRLSCAASGFTFSNAWMHWVRQAPGKGLEWVAQIKAKSNNYATYYAESVKGRFTISRDDSKNSLYLQMNSLKTEDTAVYYCRYVHYGAYYGVDAWGQGTTVTVSS VL: DIVMTQSPLSLPVTPGEPASISCRSSQSLVVSNRNTYLHWYQQKPGQAPRLLIYKVSNRFSGVPDRFSGSGSGTDFTLKISRVEAEDVGVYYCGQGTQVPYTFGQGTKLEIK | 354
4 | GLS3000 H34R (antibody, name in Kabat numbering, V domains shown) VH: QVQLVESGGGVVQPGRSLRLSCAASGFTFSNAWMHWVRQAPGKGLEWVAQIKAKSNNYATYYAESVKGRFTISRDDSKNSLYLQMNSLKTEDTAVYYCRYVHYGAYYGVDAWGQGTTVTVSS VL: DIVMTQSPLSLPVTPGEPASISCRSSQSLVHSNRNTYLRWYQQKPGQAPRLLIYKVSNRFSGVPDRFSGSGSGTDFTLKISRVEAEDVGVYYCGQGTQVPYTFGQGTKLEIK | 85800
5 | GLS3000 G91S (antibody, name in Kabat numbering, V domains shown) VH: QVQLVESGGGVVQPGRSLRLSCAASGFTFSNAWMHWVRQAPGKGLEWVAQIKAKSNNYATYYAESVKGRFTISRDDSKNSLYLQMNSLKTEDTAVYYCRYVHYGAYYGVDAWGQGTTVTVSS VL: DIVMTQSPLSLPVTPGEPASISCRSSQSLVHSNRNTYLHWYQQKPGQAPRLLIYKVSNRFSGVPDRFSGSGSGTDFTLKISRVEAEDVGVYYCGQSTQVPYTFGQGTKLEIK | 72100
6 | GLS3000 N28D (antibody, name in Kabat numbering, V domains shown) VH: QVQLVESGGGVVQPGRSLRLSCAASGFTFSNAWMHWVRQAPGKGLEWVAQIKAKSNNYATYYAESVKGRFTISRDDSKNSLYLQMNSLKTEDTAVYYCRYVHYGAYYGVDAWGQGTTVTVSS VL: DIVMTQSPLSLPVTPGEPASISCRSSQSLVHSDRNTYLHWYQQKPGQAPRLLIYKVSNRFSGVPDRFSGSGSGTDFTLKISRVEAEDVGVYYCGQGTQVPYTFGQGTKLEIK | 4460

Each binder was assayed against biotinylated CD3ε epitope peptide (assay: SPR, Biacore T100, biotinylated CD3ε epitope peptide on CM5 via streptavidin, antibody as analyte).

Row | Binder | Kd
7 | CE115_M (antibody, V domains shown) VH: EVQLVETGGSLVQPGKSLKLTCATSGFTFSNAWMHWVRQSPEKQLEWVAQIKAKSNNYATYYAESVKGRFTISRDDSKSNIYLQMNSLKEEDTAVYYCRYVHYGAYYGVDAWGQGTSVTVSS VL: DVVMTQTPVSMSVSLGGQVSISCRSSQSLVHNNGNTYVSWYIQKPSQSPQLLIYKVSNRFSGISDRFSGSGSGTDFTLKISRVEPDDLGVYYCGQGTQDPYTFGAGTKLELK | 67 nM
